Data from EP4793349A2.

Molecular target: cation-independent mannose-6-phosphate receptor (CIMPR)
Assay: CIMPR affinity chromatography of spent culture medium, before AEX capture

- percent able to bind CIMPR: 80%
Substance: recombinant human α-galactosidase A (rhα-Gal A) (from UniProt P06280 32-429) (enzyme)
